Assay results: patent publication US20230242623A1 (GEORGIA TECH RESEARCH, published 2023)

Target: T1, SARS-CoV-2 spike ectodomain protein (SARS-CoV-2, UniProt P0DTC2 14-1213)
T1 construct: extracellular domain
Assay: BLI, immobilized spike ectodomain; avidity reported as 1/Kads

B1: 3A7 (antibody, V domains shown)
VH: QVTLKESGPGILQPSQTLSLTCSFSGFSLSTSGMGVSWIRQPSGKGLEWLAHIYWDDDKRYNPSLKSRLTISKDTSSSQVFLKITSVDTVDTATYYCARRGPLITTDGTFDVWGAGTTVTVSS
VL: DIVMTQSRKFMSTSVGDRVSITCKASQDVGTSVAWYQQKPGQSPKLLIYWASTRHTGVPDRFTGSGSGTDFTLTINSVQSEDLADYFCQQYSSYPYTFGGGTKLEMK
notes: also called 3A7 clone
  Kd: ~0.01 nM
